Test results as given in article PMC5818494, “Specific Recognition of Arginine Methylated Histone Tails by JMJD5 and JMJD7” (Scientific Reports, 2018).

Legend:
JMJD7 = target: T1, JMJD7 (Mus musculus, UniProt P0C872); test: Biacore surface plasmon resonance binding of JMJD7 to immobilised bulk histone or synthetic peptides; details: C-terminal biotin peptide on SA chip or bulk histone on CM5 chip, JMJD7 injected, room temperature
T1 construct: The final model contains residues 1–316; GST (N, cleaved yes); made in house
T1 sequence (P0C872 whole entry, the tested form may be a part): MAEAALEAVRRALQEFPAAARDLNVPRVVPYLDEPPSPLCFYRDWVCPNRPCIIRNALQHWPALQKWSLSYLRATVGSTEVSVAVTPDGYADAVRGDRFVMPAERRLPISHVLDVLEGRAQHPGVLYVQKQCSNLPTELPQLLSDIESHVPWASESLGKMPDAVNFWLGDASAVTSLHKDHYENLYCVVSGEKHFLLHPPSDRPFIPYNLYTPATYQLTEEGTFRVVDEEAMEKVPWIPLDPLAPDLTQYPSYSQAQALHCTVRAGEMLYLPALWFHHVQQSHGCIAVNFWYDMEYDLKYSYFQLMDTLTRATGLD
Description: (§1) Data were integrated and scaled using the HKL2000 suite of programs.
(§2) 10 μg/ml calf bulk histone was dissolved in coating buffer (50 mM sodium acetate [pH 5.0]) and coated onto a CM5 chip (GE Healthcare). […] For peptides, 2 μg/ml synthetic peptide with C-terminal biotin was dissolved in PBS and coated onto a streptavidin coated SA chip (GE Healthcare). […] Similar procedures were carried out for JMJD5. All experiments are carried out at room temperature.

c-JMJD5 [1] = target: T2, c-JMJD5 (Homo sapiens, UniProt Q8N371); details: fluorescence polarization, c-JMJD5, previous report; read-out: binding affinity; cited from earlier work
T2 construct: JMJD5 (residues 183–416, c-JMJD5) lacking the N-terminal domain; made in house
T2 sequence (Q8N371 183-416): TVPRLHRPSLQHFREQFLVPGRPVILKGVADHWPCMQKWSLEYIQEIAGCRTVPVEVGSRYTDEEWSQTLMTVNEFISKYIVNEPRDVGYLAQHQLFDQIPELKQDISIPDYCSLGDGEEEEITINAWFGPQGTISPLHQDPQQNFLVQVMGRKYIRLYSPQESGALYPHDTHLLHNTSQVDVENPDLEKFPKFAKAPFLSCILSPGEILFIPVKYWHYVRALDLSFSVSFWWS
Source text: The binding affinities of various lysine binding domains, such as Chromodomains, PHD fingers, Tudor domains, etc., to lysine residues with and without methylation has been very well established. It is also true that the difference in binding affinity of Tudor domains to arginine with and without methylation is also marginal. The question here is whether c-JMJD5 or JMJD7 has different binding affinity depending on the methylation status of arginine. From the complex structure shown above, c-JMJD5 contains a binding pocket for methylarginine that is similar to those of Tudor domains (Fig ... || Clipping of histone tails, high turnover rates of histone in non-proliferating cells, arginine demethylation, and Pol II elongation control are highly contentious subjects in the transcription and epigenetic fields. Our previous novel discovery of clipping of arginine methylated histone tails by JMJD5 and JMJD7 sheds light on how these topics are intrinsically coupled. Data presented here not only reveal the underlying mechanism of novel enzymatic activities of JMJD5 and JMJD7, but also further corroborate our previous findings. Shortly after the release of our report, Shen et al. also repo ...

c-JMJD5 [2] = target: T2, c-JMJD5; test: Biacore surface plasmon resonance binding of c-JMJD5 to immobilised bulk histone or synthetic peptides; details: C-terminal biotin peptide on SA chip or bulk histone on CM5 chip, c-JMJD5 injected, room temperature
Description: as §1, §2

pH3: native form of H3 peptide (1–21)
binding in words (SPR sensorgram) (JMJD7): non-specific binding
Kd (c-JMJD5 [1]): ~7 µM
binding in words (SPR sensorgram) (c-JMJD5 [2]): non-specific binding
